In patent US6967029 (Amgen, dated 2005):

Biological target: T1, human SCF receptor, native, on cell membranes (human, UniProt P10721 26-976)
T1 construct: whole, on cells; also called human SCF receptors on OCIM1 cells (isolated OCIM1 plasma membrane); SCF receptors on leukemic blasts
Test: radioreceptor assay: competition with 125I-huSCF on OCIM1 plasma membrane

specific activity in the radioreceptor assay relative to SCF^1-164: ~50 % of the value for SCF^1-164
B1: E. coli derived human SCF^1-130 analog (ligand)
chain: EGICRNRVTNNVKDVTKLVANLPKDYMITLKYVPGMDVLPSHCWISEMVVQLSDSLTDLLDKFSNISEGLSNYSIIDKLVNIVDDLVECVKENSSKDLKKSFKSPEPRLFTPEEFFRIFNRSIDAFKDFV
notes: Plasmid encodes an initiating methionine before residue 1; Dimeric in solution by gel filtration
